Measured values taken from paper PMC10897393, “Cellular reprogramming in vivo initiated by SOX4 pioneer factor activity”.

Assays:
MYC-FLAG-HNF4A = biological target: T1, MYC-FLAG-HNF4A (Mus musculus, UniProt P49698 1-474); test: EMSA; EMSA: 10 mM Tris-HCl pH 7.5, 1 mM MgCl2, 1 mM DTT, 50 mM KCl, 0.3 mg/ml BSA, 5% glycerol, RT 30 min; 5% native PAGE in 0.5x TBE; conditions: protein: commercial; tags: MYC-FLAG; chain copies: 2; label: Cy5 5'-end; blunt
T1 sequence: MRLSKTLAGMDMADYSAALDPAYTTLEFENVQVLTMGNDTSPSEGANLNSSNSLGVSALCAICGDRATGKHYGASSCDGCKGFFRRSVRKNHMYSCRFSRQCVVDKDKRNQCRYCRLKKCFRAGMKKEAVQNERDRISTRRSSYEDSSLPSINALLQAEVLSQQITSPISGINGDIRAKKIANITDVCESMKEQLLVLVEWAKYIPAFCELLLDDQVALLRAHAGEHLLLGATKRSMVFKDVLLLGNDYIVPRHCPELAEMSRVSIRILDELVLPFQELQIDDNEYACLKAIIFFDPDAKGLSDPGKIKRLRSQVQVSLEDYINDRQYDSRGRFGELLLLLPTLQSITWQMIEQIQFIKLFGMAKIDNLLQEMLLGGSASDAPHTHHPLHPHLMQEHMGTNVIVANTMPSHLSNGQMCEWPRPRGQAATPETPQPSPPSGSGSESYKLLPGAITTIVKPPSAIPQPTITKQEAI

FLAG-SOX4 [1] = biological target: T2, FLAG-SOX4 (Mus musculus, UniProt Q06831 1-440); test: EMSA; more robust binding than HNF4A; EMSA: 10 mM Tris-HCl pH 7.5, 1 mM MgCl2, 1 mM DTT, 50 mM KCl, 0.3 mg/ml BSA, 5% glycerol, RT 30 min; 5% native PAGE in 0.5x TBE; conditions: protein: recombinant; label: Cy5 5'-end; blunt
T2 sequence (Q06831 whole entry): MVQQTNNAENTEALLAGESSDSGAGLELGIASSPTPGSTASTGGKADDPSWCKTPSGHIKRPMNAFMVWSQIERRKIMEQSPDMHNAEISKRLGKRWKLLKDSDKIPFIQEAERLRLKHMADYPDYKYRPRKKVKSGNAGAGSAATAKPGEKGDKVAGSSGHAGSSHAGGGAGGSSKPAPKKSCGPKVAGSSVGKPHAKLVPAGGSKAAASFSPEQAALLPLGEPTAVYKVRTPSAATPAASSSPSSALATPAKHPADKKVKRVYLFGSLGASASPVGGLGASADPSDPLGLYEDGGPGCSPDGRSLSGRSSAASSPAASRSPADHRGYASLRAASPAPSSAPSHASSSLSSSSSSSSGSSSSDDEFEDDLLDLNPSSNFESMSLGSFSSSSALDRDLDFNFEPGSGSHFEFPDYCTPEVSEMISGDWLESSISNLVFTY

FLAG-SOX4 [2] = biological target: T2, FLAG-SOX4; test: competition; SOX4 displaces pre-bound HNF4A (30 nM); value is the effective SOX4 concentration; EMSA: 10 mM Tris-HCl pH 7.5, 1 mM MgCl2, 1 mM DTT, 50 mM KCl, 0.3 mg/ml BSA, 5% glycerol, RT 30 min; 5% native PAGE in 0.5x TBE; conditions: protein: recombinant; label: Cy5 5'-end; blunt

Measured: binding result

B1: Cyp2e1 distal enhancer WT (HNF4A motif) (dsDNA)
DNA 1: ATCTCTGGGACAAAGTATAGAGAAG
DNA 2: CTTCTCTATACTTTGTCCCAGAGAT
binds: MYC-FLAG-HNF4A | FLAG-SOX4 [1] | FLAG-SOX4 [2]
